From the RNAGym collection of RNA variant scans (doi:10.1038/ncomms11558)

B1: mRNA-splicing (parent)
chain: GAUCCAGAUCUAACUUGGGGUGGCUUUGUCUUCUUCUUUUGCCAAUUCCACUAAUUGUUUGGG

Variants of: B1
Test: exon inclusion enrichment score (log2 ratio to wild type); higher = more inclusion; FAS exon 6 minigene, HEK293

Variant | exon inclusion enrichment score
U59G | -0.228
U59A | -0.31
U59C | -0.032
G57U | 0.003
G63U | -5.1
G63C | -6.23
G63A | -5.7
G61A | -1.32
G61C | 0.061
G61U | -0.154
U58A | 0.099
U58C | -0.116
U58G | -0.27
U60G | -0.709
U60C | -0.19
U60A | -2.55
G62C | -0.199
G62U | -0.581
G62A | -0.115
